# Test results reported in patent publication US20240350597A1 (UNIVERSITY COLLEGE DUBLIN, published 2024).
# B1: SerpinB3-TMP variant (other)
# chain: MNSLSEANTKFMFDLFQQFRKSKENNIFYSPISITSALGMVLLGAKDNTAQQIKKVLHFDQVTENTTGKAATYHVDRSGNVHHQFQKLLTEFNKSTDAYELKIANKLFGEKTYLFLQEYLDAIKKFYQTSVESVDFANAPEESRKKINSWVESQTNEKIKNLIPEGNIGSNTTLVLVNAIYFKGQWEKKFNKEDTKEEKFWPNKNTYKSIQMMRQYTSFHFASLEDVQAKVLEIPYKGKDLSMIVLLPNEIDGLQKLEEKLTAEKLMEWTSLQNMRETRVDLHLPRFKVEESYDLKDTLRTMGMVDIFNGDADLSGMTGSRGLVLSGVLHKAFVEVTEEGAEAAAATAVIQFRVSPTSTNEEFHCNHPFLFFIRQNKTNSILFYGRFSSP
# notes: also called SerpinB3 anti-TMPRSS2; modified SerpinB3-TMP
# Tests used:
# [1] = molecular target: T1, Transmembrane serine protease 2 (TMPRSS2) (UniProt O15393 106-492); assay: ratio of second order inhibition rate constants, with A1AT as reference
# T1 construct: also called rTMPRSS2
# [2] = molecular target: T1, Transmembrane serine protease 2 …; assay: cell-based or functional assay
# T1 sequence (O15393 106-492 limits assumed): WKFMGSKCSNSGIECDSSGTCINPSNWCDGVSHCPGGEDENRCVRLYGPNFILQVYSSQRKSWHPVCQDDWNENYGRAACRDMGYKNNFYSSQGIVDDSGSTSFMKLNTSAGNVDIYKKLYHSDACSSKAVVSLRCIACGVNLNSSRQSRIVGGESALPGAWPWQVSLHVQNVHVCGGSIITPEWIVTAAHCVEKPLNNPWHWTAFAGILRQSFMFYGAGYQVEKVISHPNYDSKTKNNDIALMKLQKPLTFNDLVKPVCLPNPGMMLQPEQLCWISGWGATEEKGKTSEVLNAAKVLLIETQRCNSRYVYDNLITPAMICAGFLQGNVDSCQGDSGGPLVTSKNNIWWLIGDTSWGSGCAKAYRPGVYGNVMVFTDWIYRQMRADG
binder,measurement,setting,value
B1,fold increase in TMPRSS2 specificity (k2) over A1AT,[1],18 fold
same,TMPRSS2 inhibition at a 5:1 serpin:protease ratio (residual activity on Boc-QAR-AMC after 10 min incubation),[2],92%
